Data on two molecules can be found in publication PMC2795169, “The Influence of Recombinant Production on the Immunologic Behavior of Birch Pollen Isoallergens” (PLoS ONE, 2009).

For one data set, the target named is T1, Bet v 1.0401 (Betula pendula, UniProt P43177).
T1 construct: gene BETV1D; full-length non-fusion protein, no tag, pET28b (Nco I/Eco RI), E. coli BL21 Star (DE3), codon-optimized gene, batch B purified without denaturation
T1 sequence (P43177 2-160): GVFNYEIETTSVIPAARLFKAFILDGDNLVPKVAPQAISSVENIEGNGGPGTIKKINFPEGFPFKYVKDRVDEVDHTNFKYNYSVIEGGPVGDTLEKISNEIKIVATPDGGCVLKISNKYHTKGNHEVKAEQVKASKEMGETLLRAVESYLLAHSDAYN
Briefly: ANS fluorescence titration, nonlinear regression. Format: binding.

Data set [1] has as its target Recombinant Bet v 1.0401 production batch A (birch) (UniProt P43177). Briefly: SEC-MALS; online HPSEC-light scattering (refractive index and right-angle light scattering), 0.5 ml/min, 0.1 M sodium phosphate pH 6.5, 150 mM sodium chloride.
Another data set has as its target P43177. Briefly: dynamic light scattering; DLS in aqueous solution at a concentration of 1 mg/ml. The settings on record: other: dynamic light scattering.

`O=S(=O)(O)c1cccc2cccc(Nc3ccccc3)c12` [8-anilino-1-naphtalenesulfonic acid]: on Bet v 1.0401, binding was characterised by a dissociation constant (Kd) of 21.2 µM.

B1: Recombinant Bet v 1.0401 production batch A (protein)
chain: MGVFNYEIETTSVIPAARLFKAFILDGDNLVPKVAPQAISSVENIEGNGGPGTIKKINFPEGFPFKYVKDRVDEVDHTNFKYNYSVIEGGPVGDTLEKISNEIKIVATPDGGCVLKISNKYHTKGNHEVKAEQVKASKEMGETLLRAVESYLLAHSDAYN
On to B1, for which, in data set [1], the percent of the protein as multimers of more than 2,000 kDa amounted to 2%, the percent of the protein as small oligomers of 70–80 kDa amounted to 12% and the stoichiometry N turned out to be 4. The “percent of the protein as aggregates (RH 16 nm) by DLS” value with P43177 is listed as 34% RH of 16±8 nm.
